Experiment [1] concerns the target T1, human CD71 extracellular domain (human, UniProt P02786 89-760).
T1 construct: also called hCD71; human CD71-ECD
The experiment in a line: primary ELISA. Also: test concentration or dose not given here. For orientation: An ELISA detects its analyte on a solid surface through an enzyme-linked reagent.

In experiment [2] the target is T2, apical domain of cynomolgus CD71 (cynomolgus, UniProt A0A2K5X958 189-383).
T2 construct: domain: apical domain; also called Cyno apical domain
T2 sequence (A0A2K5X958 entry or part of it): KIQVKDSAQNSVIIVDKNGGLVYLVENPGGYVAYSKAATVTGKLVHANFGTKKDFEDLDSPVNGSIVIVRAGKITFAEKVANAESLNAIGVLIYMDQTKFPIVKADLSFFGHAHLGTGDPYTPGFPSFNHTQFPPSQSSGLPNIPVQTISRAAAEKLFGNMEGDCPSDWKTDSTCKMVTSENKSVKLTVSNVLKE
The experiment in a line: primary ELISA. Also: test concentration or dose not given here.

The target of experiment [3] is T1, human CD71 extracellular domain. The experiment in a line: primary ELISA, signal ratio to HSA.
Experiment [4] has as its target T2, apical domain of cynomolgus CD71. Nature of the experiment: primary ELISA, signal ratio to HSA.
Experiment [5] deals with T3, human CD71 extracellular domain (CD71-ECD) (human, UniProt P02786 89-760).
T3 construct: also called hCD71; human CD71-ECD
T3 sequence (P02786 89-760): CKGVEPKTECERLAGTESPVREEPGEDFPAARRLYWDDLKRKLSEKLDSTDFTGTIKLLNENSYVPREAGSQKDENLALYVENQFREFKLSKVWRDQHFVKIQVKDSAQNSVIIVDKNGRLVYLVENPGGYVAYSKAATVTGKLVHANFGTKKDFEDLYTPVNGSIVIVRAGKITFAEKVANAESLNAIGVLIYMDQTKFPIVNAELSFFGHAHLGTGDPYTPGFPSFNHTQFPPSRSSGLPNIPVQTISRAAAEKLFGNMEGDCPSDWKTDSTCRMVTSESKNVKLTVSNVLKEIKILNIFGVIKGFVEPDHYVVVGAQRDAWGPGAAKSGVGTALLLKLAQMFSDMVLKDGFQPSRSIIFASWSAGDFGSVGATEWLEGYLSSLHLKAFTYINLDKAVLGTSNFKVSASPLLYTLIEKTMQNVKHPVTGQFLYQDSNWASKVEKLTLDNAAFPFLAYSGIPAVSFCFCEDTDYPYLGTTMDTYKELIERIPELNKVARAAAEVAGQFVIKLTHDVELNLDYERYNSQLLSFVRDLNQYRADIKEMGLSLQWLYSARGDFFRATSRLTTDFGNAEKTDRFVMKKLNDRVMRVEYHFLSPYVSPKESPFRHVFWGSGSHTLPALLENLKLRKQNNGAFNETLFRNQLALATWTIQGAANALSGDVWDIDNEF
Nature of the experiment: primary ELISA. Also: test concentration or dose not given here.

The target in experiment [6] is T3, human CD71 extracellular domain …. Nature of the experiment: primary ELISA, RLU ratio to HSA.

T1 sequence (P02786 89-760): as above

B1: CD71-binding FN3 domain of SEQ ID NO: 218 (designed binder)
chain: MSLPAPKNLVVSRVTEDSARLSWTAPDAAFDSFEIAYHEDDFYGEAIALLVPGSERSYDLTGLKPGTEYIVHIGGVKGGFFSSPLYAWFTT
On to B1, for which the RLU stood at 2.42e+06 RLU in experiment [1] and 4.72e+06 RLU in experiment [2]. The “hCD71:HSA” value in experiment [3] came out at 77. The “Cyno apical domain:HSA” value in experiment [4] amounted to 149.

B2: CD71-binding FN3 domain of SEQ ID NO: 143 (designed binder)
chain: MSLPAPKNLVVSRVTEDSARLSWTAPDAAFDSFAIQYVEVIGSGEAIELIVPGSERSYDLTGLKPGTEYHVYIDGVKGGKDSKPLYAGFTT
B2: the RLU in experiment [1] stood at 2.91e+06 RLU; in experiment [2], 4.41e+06 RLU. Moreover, the “hCD71:HSA” value in experiment [3] stood at 94. Moreover, in experiment [4], the “Cyno apical domain:HSA” value turned out to be 142.

B3: CD71-binding FN3 domain of SEQ ID NO: 142 (designed binder)
chain: MSLPAPKNLVVSRVTEDSARLSWTASDAAFDSFHIWYFEKANEGEAIPLVVPGSERSYDLTGLKPGTEYDVDIGGVKGGAWSIPLGARFTT
Consider B3, for which the RLU in experiment [1] came to 3.57e+06 RLU; in experiment [2], 5.27e+06 RLU. Moreover, in experiment [3], the “hCD71:HSA” value is 65. Further, in experiment [4], the “Cyno apical domain:HSA” value came to 95.

B4: CD71-binding FN3 domain of SEQ ID NO: 162 (designed binder)
chain: MSLPAPKNLVVSRVTEDSARLSWTALDAAFDSFEISYWEHTFNGEAIILFVPGSERSYDLTGLKPGTEYYVTIGGVKGGAWSPPLWAEFTT
Take B4: the values for the RLU in experiment [1] and in experiment [2] were 4.46e+06 RLU and 5.49e+06 RLU, respectively. Further, the “hCD71:HSA” value in experiment [3] came to 240. In experiment [4], the “Cyno apical domain:HSA” value was determined as 296.

B5: CD71-binding FN3 domain of SEQ ID NO: 178 (designed binder)
chain: MGSLPAPKNLVVSRVTEDSARLSWTAPDAAFDSFFIGYLEPQPPGEAISLYVPGSERSYDLTGLKPGTEYNVTIQGVKGGFPSDPLVAHFTT
With B5, the RLU was determined as 7.01e+06 RLU in experiment [1] and 5.99e+06 RLU in experiment [2]. Besides, in experiment [3], the “hCD71:HSA” value is 319. Further, the “Cyno apical domain:HSA” value in experiment [4] was found to be 272.

B6: CD71-binding FN3 domain of SEQ ID NO: 140 (designed binder)
chain: MSLPAPKNLVVSRVTEDSARLSWTAPDAAFDSFFIGYLEPQPPGEAIHLYVPGSERSYDLTGLKPGTEYNVTIQGVKGGFPSMPLSAIFTT
With B6, the figures for the RLU in experiment [1] and in experiment [2] were 5.72e+06 RLU and 7.01e+06 RLU, respectively. The “hCD71:HSA” value in experiment [3] came out at 163. The “Cyno apical domain:HSA” value in experiment [4] was 199.

B7: CD71-binding FN3 domain of SEQ ID NO: 163 (designed binder)
chain: MSLPAPKNLVVSRVTEDSARLSWTAPDAAFDSFFIGYLEPQPPGEVIHLYVPGSERSYDLTGLKPGTEYVVFIGGVKGGVWSVPLSAIFTT
Consider B7, for which the RLU amounted to 1.5e+06 RLU in experiment [1] and 5.14e+06 RLU in experiment [2]. Moreover, the “hCD71:HSA” value in experiment [3] was determined as 65. Besides, the “Cyno apical domain:HSA” value in experiment [4] amounted to 225.

B8: CD71-binding FN3 domain of SEQ ID NO: 147 (designed binder)
chain: MSLPAPKNLVVSRVTEDSARLSWTAPDAAFDSFFIGYLEPQPPGEAIELFVPGSERSYDLTGLKPGTEYNVTIQGVKGGFPSGPLIASFTT
B8: the RLU in experiment [1] is 5.56e+06 RLU; in experiment [2] it was 6.67e+06 RLU. Besides, the “hCD71:HSA” value in experiment [3] was 173. Also, in experiment [4], the “Cyno apical domain:HSA” value worked out at 208.

B9: CD71-binding FN3 domain of SEQ ID NO: 145 (designed binder)
chain: MSLPAPKNLVVSRVTEDSARLSWTAPDAAFDSFFIGYLEPQPPGEAIALLVPGSERSYDLTGLKPGTEYNVTIQGVKGGFPSHPLSAKFTT
As for B9, the RLU in experiment [1] came out at 5.14e+06 RLU; in experiment [2], 6.36e+06 RLU. The “hCD71:HSA” value in experiment [3] turned out to be 158. For the same molecule, the “Cyno apical domain:HSA” value in experiment [4] was found to be 196.

B10: CD71-binding FN3 domain of SEQ ID NO: 167 (designed binder)
chain: MSLPAPKNLVVSRVTEDSARLSWTAPDAAFDSFFIGYLEPQPPGEAIVLTVPGSERSYDLTGLKPGTEYNVTIQGVKGGFPSVPLSAAFTT
As to B10, the figures for the RLU in experiment [1] and in experiment [2] were 4.72e+06 RLU and 5.93e+06 RLU, respectively. Besides, the “hCD71:HSA” value in experiment [3] amounted to 66. Moreover, the “Cyno apical domain:HSA” value in experiment [4] turned out to be 83.

B11: CD71-binding FN3 domain of SEQ ID NO: 179 (designed binder)
chain: MSLPAPKNLVVSRVTEDSARLSWTAPDAAFDSFFIGYLEPQPPGEAITLLVPGSERSYDLTGLKPGTEYNVTIQGVKGGFPSHPLVATTTT
B11: the RLU is 4.11e+06 RLU in experiment [1] and 4.71e+06 RLU in experiment [2]. For the same molecule, the “hCD71:HSA” value in experiment [3] came to 39. In experiment [4], the “Cyno apical domain:HSA” value is 45.

B12: CD71-binding FN3 domain of SEQ ID NO: 180 (designed binder)
chain: MSLPAPKNLVVSRVTEDSARLSWTAPDAAFDSFFIGYLEPQPPGEAISLYVPGSERSYDLTGLKPGTEYNVTIQGVKGGFPSEPLIANFTT
For the molecule B12, the RLU in experiment [1] worked out at 6.68e+06 RLU; in experiment [2] it was 6.09e+06 RLU. In addition, the “hCD71:HSA” value in experiment [3] stood at 275. Also, in experiment [4], the “Cyno apical domain:HSA” value turned out to be 251.

B13: CD71-binding FN3 domain of SEQ ID NO: 161 (designed binder)
chain: MSLPAPKNLVVSRVTEDSARLSWTAPDAAFDSFFIGYLEPQPPGEAIVLTVPGSERSYDLTGLKPGTEYNVTIQGVKGGFPSEPLVAHFTT
In the case of B13, the RLU was found to be 5.73e+06 RLU in experiment [1] and 6.09e+06 RLU in experiment [2]. Besides, the “hCD71:HSA” value in experiment [3] is 13. Further, the “Cyno apical domain:HSA” value in experiment [4] is 14.

B14: CD71-binding FN3 domain of SEQ ID NO: 168 (designed binder)
chain: MSLPAPKNLVVSRVTEDSARLSWTAPDAAFDSFIIGYLEPQPPDEAIALYVPGSERSYDLTGLKPGTEYNVTIQGVKGGFPSLPLVATFTT
For the molecule B14, the RLU in experiment [1] was 3.94e+06 RLU; in experiment [2], 4.84e+06 RLU. Also, in experiment [3], the “hCD71:HSA” value was determined as 32. Besides, the “Cyno apical domain:HSA” value in experiment [4] was 39.

B15: CD71-binding FN3 domain of SEQ ID NO: 197 (designed binder)
chain: MSLPAPKNLVVSRVTEDSARLSWTAPDAAFDSFFIGYLEPQPPGEAISLLVPGSERSYDLTGLKPGTEYNVTIQGVKGGFPSEPLHAIFTT
Regarding B15, the RLU was 3.4e+06 RLU in experiment [1] and 6.23e+06 RLU in experiment [2]. Also, the “hCD71:HSA” value in experiment [3] is 36. Further, in experiment [4], the “Cyno apical domain:HSA” value worked out at 66.

B16: CD71-binding FN3 domain of SEQ ID NO: 204 (designed binder)
chain: MSLPAPKNLVVSRVTEDSARLSWTAPDAAFDSFLIQYDEWPTYGEAIVLTVPGSERSYDLTGLKPGTEYLVEIVGVKGGNLSGPLSAIFTT
Consider B16, for which the RLU was determined as 4.09e+06 RLU in experiment [1] and 5.46e+06 RLU in experiment [2]. Moreover, the “hCD71:HSA” value in experiment [3] amounted to 243. Besides, the “Cyno apical domain:HSA” value in experiment [4] was found to be 325.

B17: CD71-binding FN3 domain SEQ ID NO: 235 (designed binder)
chain: MSLPAPKNLVVSRVTEDSARLSWTAPDAAFDSFEIVYAEPVRFGEAIVLTVPGSERSYDLTGLKPGTEYWVQIGGVKGGNWSAPLSAIFTT
B17: the RLU in experiment [5] came to 3.8e+06 RLU. Besides, the “hCD71:HSA” value in experiment [6] was found to be 376.

B18: CD71-binding FN3 domain SEQ ID NO: 236 (designed binder)
chain: MSLPAPKNLVVSRVTEDSARLSWTEPDAAFDSFEIGYFENLYLGEAIVLTVPGSERSYDLTGLKPGTEYWVQIGGVKGGNWSAPLSAIFTT
B18 yielded an RLU in experiment [5] of 3.29e+06 RLU. Moreover, the “hCD71:HSA” value in experiment [6] is 101.

B19: CD71-binding FN3 domain SEQ ID NO: 244 (designed binder)
chain: MSLPAPKNLVVSRVTEDSARLSWTAPDAAFDSFEIGYFENLYLGEAIVLTVPGSERSYDLTGLKPGTEYVVFIGGVKGGEYSIPLSAIFTT
Regarding B19, the RLU in experiment [5] is 3.25e+06 RLU. Besides, the “hCD71:HSA” value in experiment [6] is 392.

B20: CD71-binding FN3 domain SEQ ID NO: 247 (designed binder)
chain: MSLPAPKNLVVSRVTEDSARLSWTAPDAAFDSFEIGYFENLYLGEAIVLTVPGSERSYDLTGLKPGTEYWVQIGGVKGGEWSAPLSAIFTT
With B20, the RLU in experiment [5] is 2.89e+06 RLU. The “hCD71:HSA” value in experiment [6] amounted to 442.

B21: CD71-binding FN3 domain SEQ ID NO: 239 (designed binder)
chain: MSLPAPKNLVVSRVTEDSARLSWTAPDAAFDSFEIVYQENSAYGEAIVLTVPGSERSYDLTGLKPGTEYWVQIGGVKGGNWSAPLSAIFTT
As for B21, the RLU in experiment [5] was 1.88e+06 RLU. The “hCD71:HSA” value in experiment [6] came to 154.

B22: CD71-binding FN3 domain SEQ ID NO: 238 (designed binder)
chain: MSLPAPKNLVVSRVTEDSARLSWTAPDAAFDSFEIGYFENDYFGEAIVLTVPGSERSYDLTGLKPGTEYVVFIGGVKGGKWSAPLSAIFTT
In experiment [5], B22 showed an RLU of 3.86e+06 RLU. Moreover, the “hCD71:HSA” value in experiment [6] amounted to 576.

B23: CD71-binding FN3 domain SEQ ID NO: 237 (designed binder)
chain: MSLPAPKNLVVSRVTEDSARLSWTAPDAAFDSFEIAYFERTWFGEAIVLTVPGSERSYDLTGLKPGTEYWVQIGGVKGGDWSKPLSAIFTT
B23: the RLU in experiment [5] came to 3.98e+06 RLU. Further, the “hCD71:HSA” value in experiment [6] was determined as 535.

B24: CD71-binding FN3 domain SEQ ID NO: 248 (designed binder)
chain: MSLPAPKNLVVSRVTEDSARLSWTAPDAAFDSFEIGYFENLYLGEAIVLTVPGSERSYDLTGLKPGTEYVVFIGGVKGGDFSPPLSAIFTT
For B24, the RLU in experiment [5] was found to be 3.49e+06 RLU. In experiment [6], the “hCD71:HSA” value came out at 375.

B25: CD71-binding FN3 domain SEQ ID NO: 242 (designed binder)
chain: MSLPAPKNLVVSRVTEDSARLSWTAPDAAFDSFEIGYFENLYLGEAIVLTVPGSERSYDLTGLKPGTKYWVQIGGVKGGNWSAPLSAIFTT
With B25, in experiment [5], the RLU came to 1.61e+06 RLU. Moreover, in experiment [6], the “hCD71:HSA” value amounted to 165.

B26: CD71-binding FN3 domain SEQ ID NO: 246 (designed binder)
chain: MSLPAPKNLVVSRVTEDSARLSWTAPDAAFDSFEIAYQELSLWGEAIVLTVPGSERSYDLTGLKPGTEYYVHIGGVKGGIWSSPLSAYFTT
For B26, in experiment [5], the RLU was 3.68e+06 RLU. Moreover, the “hCD71:HSA” value in experiment [6] was 362.

B27: CD71-binding FN3 domain of SEQ ID NO: 198 (designed binder)
chain: MSLPAPKNLVVSRVTEDSARLSWTAPDAAFDSFLIGYTEYSVYGEAIVLTVPGSERSYDLTGLKPGTEYTVWIMGVKGGIKSTPLSAISTT
In the case of B27, the values for the RLU in experiment [1] and in experiment [2] were 3.62e+06 RLU and 4.95e+06 RLU, respectively. In addition, in experiment [3], the “hCD71:HSA” value was 84. In addition, in experiment [4], the “Cyno apical domain:HSA” value was 116.
